Experimental data: article PMC9482650, “Quantitative fragmentomics allow affinity mapping of interactomes” (Nature Communications, 2022)

Legend:
Test in all cases: holdup assay
Set-up in all cases: key: below the threshold = too weak to quantify, mostly under pKd 3.1 to 4
CARD14, Q9BXL6 = biological target: CARD14, Q9BXL6
CNKSR3, Q6P9H4 = biological target: CNKSR3, Q6P9H4
DVL2, O14641 = biological target: DVL2, O14641
GIPC1, O14908 = biological target: T1, GIPC1, O14908
T1 sequence (O14908 128-223, limits assumed, looked up): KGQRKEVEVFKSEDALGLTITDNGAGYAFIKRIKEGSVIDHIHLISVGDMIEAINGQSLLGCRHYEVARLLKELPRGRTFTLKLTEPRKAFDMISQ

GIPC3, Q8TF64 = biological target: GIPC3, Q8TF64
Sequence of GIPC3, Q8TF64 (Q8TF64 107-202): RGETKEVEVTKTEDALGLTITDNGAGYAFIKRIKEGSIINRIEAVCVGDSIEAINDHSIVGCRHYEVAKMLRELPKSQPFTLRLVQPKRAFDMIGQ

GRIP1_1, Q9Y3R0 = biological target: T2, GRIP1_1, Q9Y3R0
T2 sequence (Q9Y3R0 48-146, limits assumed, looked up): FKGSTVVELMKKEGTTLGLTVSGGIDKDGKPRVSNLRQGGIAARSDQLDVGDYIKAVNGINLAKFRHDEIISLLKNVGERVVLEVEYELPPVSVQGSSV

GRIP2_2, Q9C0E4 = biological target: GRIP2_2, Q9C0E4
Sequence of GRIP2_2, Q9C0E4 (Q9C0E4 137-245): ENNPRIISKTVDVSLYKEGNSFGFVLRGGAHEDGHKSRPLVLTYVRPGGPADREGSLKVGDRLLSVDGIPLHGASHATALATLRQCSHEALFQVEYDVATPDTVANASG

IL16_2, Q14005 = biological target: IL16_2, Q14005
Sequence of IL16_2, Q14005 (Q14005 350-450): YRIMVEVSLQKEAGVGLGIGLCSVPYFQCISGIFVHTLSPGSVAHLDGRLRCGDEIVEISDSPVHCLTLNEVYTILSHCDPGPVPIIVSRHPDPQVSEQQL

LIMK1, P53667 = biological target: LIMK1, P53667
Sequence of LIMK1, P53667 (P53667 155-268): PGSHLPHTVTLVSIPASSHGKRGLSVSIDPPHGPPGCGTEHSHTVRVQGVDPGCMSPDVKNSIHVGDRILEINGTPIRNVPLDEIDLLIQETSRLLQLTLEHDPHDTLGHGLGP

LMO7, Q8WWI1 = biological target: LMO7, Q8WWI1
Sequence of LMO7, Q8WWI1 (Q8WWI1 1037-1138): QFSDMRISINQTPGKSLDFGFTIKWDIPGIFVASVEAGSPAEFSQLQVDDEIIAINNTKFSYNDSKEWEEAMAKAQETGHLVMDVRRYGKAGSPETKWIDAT

LNX1_4, Q8TBB1 = biological target: LNX1_4, Q8TBB1
Sequence of LNX1_4, Q8TBB1 (Q8TBB1 631-726): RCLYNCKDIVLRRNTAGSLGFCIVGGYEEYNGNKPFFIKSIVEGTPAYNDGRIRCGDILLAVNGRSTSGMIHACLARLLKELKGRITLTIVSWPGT

MAGI1_4, Q96QZ7 = biological target: MAGI1_4, Q96QZ7
Sequence of MAGI1_4, Q96QZ7 (Q96QZ7 other isoform, or with tags, fused parts or gaps): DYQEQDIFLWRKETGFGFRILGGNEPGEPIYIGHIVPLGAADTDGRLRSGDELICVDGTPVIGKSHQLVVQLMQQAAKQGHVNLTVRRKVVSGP

MLLT4, P55196 = biological target: T3, MLLT4, P55196
T3 sequence (P55196 1002-1103, limits assumed, looked up): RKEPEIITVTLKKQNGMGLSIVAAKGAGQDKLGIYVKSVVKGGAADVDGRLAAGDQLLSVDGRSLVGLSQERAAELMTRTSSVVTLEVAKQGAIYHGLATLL

MPDZ_2, O75970 = biological target: T4, MPDZ_2, O75970
T4 sequence (O75970 252-347, limits assumed, looked up): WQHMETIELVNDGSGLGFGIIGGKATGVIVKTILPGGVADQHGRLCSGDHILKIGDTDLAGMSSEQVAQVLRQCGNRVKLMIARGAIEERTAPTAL

NHERF1_2, O14745 = biological target: T5, NHERF1_2, O14745
T5 sequence (O14745 149-244, limits assumed, looked up): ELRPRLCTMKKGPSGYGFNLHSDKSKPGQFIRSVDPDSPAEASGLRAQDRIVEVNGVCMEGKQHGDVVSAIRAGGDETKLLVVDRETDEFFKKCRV

NHERF3_2, Q5T2W1 = biological target: T6, NHERF3_2, Q5T2W1
T6 sequence (Q5T2W1 129-225, limits assumed, looked up): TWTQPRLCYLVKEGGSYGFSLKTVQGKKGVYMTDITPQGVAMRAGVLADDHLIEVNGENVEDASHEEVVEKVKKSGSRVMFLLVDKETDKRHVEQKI

PDZD2_1, O15018 = biological target: T7, PDZD2_1, O15018
T7 sequence (O15018 80-192, limits assumed, looked up): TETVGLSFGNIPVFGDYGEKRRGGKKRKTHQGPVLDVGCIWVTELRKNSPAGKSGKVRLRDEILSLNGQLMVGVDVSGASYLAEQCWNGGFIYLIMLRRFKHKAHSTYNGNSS

PDZD7_2, Q9H5P4 = biological target: T8, PDZD7_2, Q9H5P4
T8 sequence (Q9H5P4 205-303, limits assumed, looked up): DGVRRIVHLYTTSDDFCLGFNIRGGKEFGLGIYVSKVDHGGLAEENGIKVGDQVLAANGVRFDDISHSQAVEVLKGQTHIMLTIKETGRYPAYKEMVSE

SHANK3, Q9BYB0 = biological target: T9, SHANK3, Q9BYB0
T9 sequence (Q9BYB0 641-750, limits assumed, looked up): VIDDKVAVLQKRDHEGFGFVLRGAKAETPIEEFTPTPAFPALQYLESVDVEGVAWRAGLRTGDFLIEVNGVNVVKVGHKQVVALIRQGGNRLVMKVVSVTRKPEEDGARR

SHROOM4, Q9ULL8 = biological target: T10, SHROOM4, Q9ULL8
T10 sequence (Q9ULL8 5-102, limits assumed, looked up): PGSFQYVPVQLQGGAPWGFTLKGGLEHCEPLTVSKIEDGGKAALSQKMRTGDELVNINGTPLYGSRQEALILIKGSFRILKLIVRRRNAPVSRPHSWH

SIPA1L3, O60292 = biological target: T11, SIPA1L3, O60292
T11 sequence (O60292 961-1052, limits assumed, looked up): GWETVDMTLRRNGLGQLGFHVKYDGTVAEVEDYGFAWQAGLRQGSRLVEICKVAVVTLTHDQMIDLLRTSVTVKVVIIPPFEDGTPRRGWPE

SNTB2, Q13425 = biological target: T12, SNTB2, Q13425; settings: plain residues with an end cap or a label only (N-terminal biotin on a linker: (peg)3)
T12 sequence (Q13425 110-208, limits assumed, looked up): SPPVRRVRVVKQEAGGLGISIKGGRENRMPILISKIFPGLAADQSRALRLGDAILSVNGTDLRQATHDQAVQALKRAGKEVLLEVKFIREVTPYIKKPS

USH1C_3, Q9Y6N9 = biological target: T13, USH1C_3, Q9Y6N9
T13 sequence (Q9Y6N9 447-547, limits assumed, looked up): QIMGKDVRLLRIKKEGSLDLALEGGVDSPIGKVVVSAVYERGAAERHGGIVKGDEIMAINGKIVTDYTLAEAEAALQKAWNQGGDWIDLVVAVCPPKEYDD

[1] = plain residues with an end cap or a label only (N-terminal biotin on a linker: (peg)3)
[2] = modified: acetyl on K at position -1 from the C-terminal residue
[3] = modified: phospho on S at position -3 from the C-terminal residue

Sequence of CNKSR3, Q6P9H4 (Q6P9H4 203-303): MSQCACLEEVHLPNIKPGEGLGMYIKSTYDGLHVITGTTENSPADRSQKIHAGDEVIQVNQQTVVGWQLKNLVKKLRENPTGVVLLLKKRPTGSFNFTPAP
Sequence of DVL2, O14641 (O14641 260-359): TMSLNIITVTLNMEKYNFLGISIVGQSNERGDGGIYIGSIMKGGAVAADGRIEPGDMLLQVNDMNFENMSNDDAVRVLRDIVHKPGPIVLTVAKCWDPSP
Sequence of CARD14, Q9BXL6 (Q9BXL6 558-663): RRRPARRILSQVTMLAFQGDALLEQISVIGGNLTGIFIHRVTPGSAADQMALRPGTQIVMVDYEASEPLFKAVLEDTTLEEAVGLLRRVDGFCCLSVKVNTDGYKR

B1: SARS-Cov2-3a, P0DTC3 (peptide)
chain: YDEPTTTTSVPL
For B1, the pKd (CARD14, Q9BXL6; [1]) was “below the threshold”, the pKd (CNKSR3, Q6P9H4; [1]) was “below the threshold” and the pKd (DVL2, O14641; [1]) was “below the threshold”. The pKd (GIPC1, O14908; [1]) was “below the threshold”, the pKd (GIPC3, Q8TF64; [1]) was “below the threshold” and the pKd (GRIP1_1, Q9Y3R0; [1]) was “below the threshold”. The pKd (GRIP2_2, Q9C0E4; [1]) was “below the threshold”, the pKd (IL16_2, Q14005; [1]) was “below the threshold” and the pKd (LIMK1, P53667; [1]) was “below the threshold”. For the same binder, the pKd (LMO7, Q8WWI1; [1]) was “below the threshold”, the pKd (LNX1_4, Q8TBB1; [1]) was “below the threshold” and the pKd (MAGI1_4, Q96QZ7; [1]) was “below the threshold”. The pKd (MLLT4, P55196; [1]) was “below the threshold”, the pKd (MPDZ_2, O75970; [1]) was “below the threshold” and the pKd (NHERF1_2, O14745; [1]) was “below the threshold”. The pKd (NHERF3_2, Q5T2W1; [1]) was “below the threshold”, the pKd (PDZD2_1, O15018; [1]) was “below the threshold” and the pKd (PDZD7_2, Q9H5P4; [1]) was “below the threshold”. For the same binder, the pKd (SHANK3, Q9BYB0; [1]) was “below the threshold”, the pKd (SHROOM4, Q9ULL8; [1]) was “below the threshold” and the pKd (SIPA1L3, O60292; [1]) was “below the threshold”. For the same binder, the pKd (SNTB2, Q13425) was “below the threshold” and the pKd (USH1C_3, Q9Y6N9; [1]) was “below the threshold”.

B2: PTEN_Ac, P60484 (peptide)
chain: DEDQHTQITKV
B2 was tested, and the pKd (GIPC1, O14908; [2]) was “below the threshold”, the pKd (IL16_2, Q14005; [2]) was “below the threshold” and the pKd (LIMK1, P53667; [2]) was “below the threshold”. For the same binder, the pKd (MPDZ_2, O75970; [2]) was 4.3, the pKd (NHERF1_2, O14745; [2]) was “below the threshold” and the pKd (NHERF3_2, Q5T2W1; [2]) was 3.61. For the same binder, the pKd (PDZD2_1, O15018; [2]) was “below the threshold”, the pKd (SHANK3, Q9BYB0; [2]) was 4.04 and the pKd (SHROOM4, Q9ULL8; [2]) was “below the threshold”. For the same binder, the pKd (SIPA1L3, O60292; [2]) was “below the threshold”.

B3: RPS6KA1_-3P, Q15418 (peptide)
chain: RRVRKLPSTTL
For B3, the pKd (CARD14, Q9BXL6; [3]) was “below the threshold”, the pKd (CNKSR3, Q6P9H4; [3]) was “below the threshold” and the pKd (DVL2, O14641; [3]) was “below the threshold”. The pKd (GIPC1, O14908; [3]) was “below the threshold”, the pKd (GIPC3, Q8TF64; [3]) was “below the threshold” and the pKd (GRIP1_1, Q9Y3R0; [3]) was “below the threshold”. For the same binder, the pKd (GRIP2_2, Q9C0E4; [3]) was “below the threshold”, the pKd (IL16_2, Q14005; [3]) was “below the threshold” and the pKd (LMO7, Q8WWI1; [3]) was “below the threshold”. The pKd (LNX1_4, Q8TBB1; [3]) was “below the threshold”, the pKd (MAGI1_4, Q96QZ7; [3]) was “below the threshold” and the pKd (MLLT4, P55196; [3]) was “below the threshold”. For the same binder, the pKd (MPDZ_2, O75970; [3]) was “below the threshold”, the pKd (NHERF1_2, O14745; [3]) was “below the threshold” and the pKd (NHERF3_2, Q5T2W1; [3]) was “below the threshold”. The pKd (PDZD2_1, O15018; [3]) was “below the threshold”, the pKd (PDZD7_2, Q9H5P4; [3]) was 3.49 and the pKd (SHANK3, Q9BYB0; [3]) was “below the threshold”. The pKd (SHROOM4, Q9ULL8; [3]) was “below the threshold”, the pKd (SIPA1L3, O60292; [3]) was “below the threshold” and the pKd (USH1C_3, Q9Y6N9; [3]) was “below the threshold”.
